The target in the data set is T1, Rv1019 (TetR family regulator) (UniProt P96381 1-197).
T1 sequence: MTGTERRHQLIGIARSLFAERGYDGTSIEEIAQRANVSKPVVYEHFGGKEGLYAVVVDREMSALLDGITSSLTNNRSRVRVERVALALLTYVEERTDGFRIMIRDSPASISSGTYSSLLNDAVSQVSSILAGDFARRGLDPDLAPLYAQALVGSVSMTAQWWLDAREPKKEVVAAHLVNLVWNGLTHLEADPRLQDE
Nature of the data set: EMSA. On the technique in general: Mobility shift assays separate free from complexed probe on a gel.

This note sets out measurements from publication doi:10.1101/2022.04.26.489556.

B1: MSMEG_1885 palindrome (MS_1886 PAL oligos) (dsDNA)
DNA 1: TAAGTTACGGTACCGTAGGTTG
DNA 2: CAACCTACGGTACCGTAACTTA
As for B1, the binding result was “binds”.
